Patent US20170081400A1 (CEPHALON, published 2017)

T1: human TL1A extracellular domain with N-terminal HIS and FLAG tag (human, UniProt O95150 72-251)
T1 construct: whole entry named. ~70 kDa fraction purified by gel filtration
T1 sequence: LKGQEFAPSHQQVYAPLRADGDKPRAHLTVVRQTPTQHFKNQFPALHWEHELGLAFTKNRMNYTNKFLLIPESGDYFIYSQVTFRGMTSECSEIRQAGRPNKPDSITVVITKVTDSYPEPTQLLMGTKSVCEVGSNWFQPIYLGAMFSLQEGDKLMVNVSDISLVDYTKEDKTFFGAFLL

T2: human TL1A extracellular domain with N-terminal HIS and FLAG tag (human, UniProt O95150 72-251)
T2 construct: the whole entry is named; also called TNFSF15
T2 sequence: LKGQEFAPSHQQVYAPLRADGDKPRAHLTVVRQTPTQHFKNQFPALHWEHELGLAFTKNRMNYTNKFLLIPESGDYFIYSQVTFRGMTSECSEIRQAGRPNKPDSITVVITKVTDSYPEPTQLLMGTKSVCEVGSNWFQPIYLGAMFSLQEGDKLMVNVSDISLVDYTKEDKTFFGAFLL


Assays:
[1] = molecular target: T1, human TL1A extracellular domain with …; assay: SPR run 2; supernatant on Protein A; TL1A 10 ug/mL; timepoint 44
Procedure, shortened: (§1)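 The capture level was the response change at the end of loading, which varied by run. Antigen response was read before dissociation ended, double-referenced against a reference flow cell and a buffer blank.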

[2] = molecular target: T1, human TL1A extracellular domain with …; assay: SPR run 2; supernatant on Protein A; TL1A 10 ug/mL; timepoint 220
Procedure, shortened: as §1

[3] = molecular target: T1, human TL1A extracellular domain with …; assay: SPR run 2; purified antibody on Protein A; TL1A 10 ug/mL; timepoint 44
Source text: (§2) 1.5. Antibody expression and antigen binding as determined by SPR. Using a CM5 sensor chip (GE Healthcare) Protein A (Pierce) was coupled to the chip surface using an amine coupling kit (GE Healthcare). Protein A was coupled on flow cell 1 and 2 (or alternatively 3 and 4) using a BIACORE® T200. […] The amount of supernatant or purified protein (as well as the concentration) injected during the capture stage varied between runs and is specified in the header of the Tables 3-11. At the end of injection of the supernatant or purified antibody the change in response units was measured. This value was reported as Capture Level in Tables 3-11. […] The response units were measured prior to the end of the dissociation phase. […] The sensorgrams were double referenced (flow cell 2 is subtracted from flow cell 1 and a buffer blank). As there were a large number of antibody variants to screen, these were screened across different runs (Tables 3-11). […] A summary of the conditions used in each run is below:
(§3) 2.1. […] In some experiment the antibodies were purified using Protein A chromatography (See 1.4) and purified antibodies were used in BIACORE® (GE Healthcare) experiments.

[4] = molecular target: T1, human TL1A extracellular domain with …; assay: SPR run 2; purified antibody on Protein A; TL1A 10 ug/mL; timepoint 590
Source text: as §2, §3

[5] = molecular target: T2, human TL1A extracellular domain with …; assay: SPR Run 9, antibody on Protein A, TL1A 5 ug/mL, timepoint 44
Source text: as §2, §3

[6] = molecular target: T2, human TL1A extracellular domain with …; assay: SPR Run 9, antibody on Protein A, TL1A 5 ug/mL, timepoint 590
Source text: as §2, §3

[7] = molecular target: T2, human TL1A extracellular domain with …; assay: cell-based or functional assay

Binder	TL1A Binding Level (Early) [1] [RU]	TL1A Binding Level (Late) [2] [RU]	TL1A Binding Level (Early) [3] [RU]	TL1A Binding Level (Late) [4] [RU]	TL1A Binding Level (Early) [5] [RU]	TL1A Binding Level (Late) [6] [RU]	Antibody IC50, TL1A induced caspase potency assay in TF-1 cells [7] [ng/mL]	Fold improvement over 320-179, TL1A induced caspase potency assay in TF-1 cells [7] [fold]
320-193 (antibody, human IgG1, name in Kabat numbering, V domains shown, human IgG1, lambda) VH: QVQLVQSGAEVKKPGASVKVSCKASGYTFTSYDINWVRQAPGQGLEWMGWLNPNSGNTGYAQKFQGRVTMTADRSTSTAYMELSSLRSEDTAVYYCAREVPETAAFEYWGQGTLVTVSS VL: QSVLTQPPSVSGAPGQRVTISCSSSSSDIGAGLGVHWYQQLPGTAPKLLIEGYYNRPSGVPDRFSGSKSGTSASLTITGLLPEDEGDYYCQSYDGTLSALFGGGTKLTVLG	249	227	103	91				
320-600 (antibody, human IgG1, name in Kabat numbering, V domains shown, full-length human IgG1, lambda) VH: QVQLVQSGAEVKKPGASVKVSCKASGYTFTSYDINWVRQAPGQGLEWMGWLNPNSGNTGYAQKFQGRVTMTADRSTSTAYMELSSLRSEDTAVYYCAREVPETAAFEYWGQGTLVTVSS VL: QSVLTQPPSVSGAPGQRVTISCTSSSSDIGAALGVHWYQQLPGTAPKLLIEGYYNRPSGVPDRFSGSKSGTSASLTITGLLPEDEGDYYCQSFDGTLSALFGGGTKLTVLG					111	104		
320-601 (antibody, human IgG1, name in Kabat numbering, V domains shown, full-length human IgG1, lambda) VH: QVQLVQSGAEVKKPGASVKVSCKASGYTFTSYDINWVRQAPGQGLEWMGWLNPNSGYTGYAQKFQGRVTMTADRSTSTAYMELSSLRSEDTAVYYCAREVPETAAFEYWGQGTLVTVSS VL: QSVLTQPPSVSGAPGQRVTISCTSSSSDIGAGLGVHWYQQLPGTAPKLLIEGYYNRPSGVPDRFSGSKSGTSASLTITGLLPEDEGDYYCQSFDGTLSALFGGGTKLTVLG					121	120	2	10
320-197 (antibody, human IgG1, name in Kabat numbering, V domains shown, human IgG1, lambda) VH: QVQLVQSGAEVKKPGASVKVSCKASGYTFTSYDINWVRQAPGQGLEWMGWLNPNSGNTGYAQKFQGRVTMTADRSTSTAYMELSSLRSEDTAVYYCAREVPETAAFEYWGQGTLVTVSS VL: QSVLTQPPSVSGAPGQRVTISCKSSSSDIGAGLGVHWYQQLPGTAPKLLIEGYYNRPSGVPDRFSGSKSGTSASLTITGLLPEDEGDYYCQSYDGTLSALFGGGTKLTVLG	255	232	105	94				
320-603 (antibody, human IgG1, name in Kabat numbering, V domains shown, full-length human IgG1, lambda) VH: QVQLVQSGAEVKKPGASVKVSCKASGYTFTSYDINWVRQAPGQGLEWMGWLNPNSGYTGYAQKFQGRVTMTADRSTSTAYMELSSLRSEDTAVYYCAREVPETAAFEYWGQGTLVTVSS VL: QSVLTQPPSVSGAPGQRVTISCTSSSSDIGAGLGVLWYQQLPGTAPKLLIEGYYNRPSGVPDRFSGSKSGTSASLTITGLLPEDEGDYYCQSFDGTLSALFGGGTKLTVLG					126	118		
320-602 (antibody, human IgG1, name in Kabat numbering, V domains shown, full-length human IgG1, lambda) VH: QVQLVQSGAEVKKPGASVKVSCKASGYTFTSYDINWVRQAPGQGLEWMGWLNPNSGYTGYAQKFQGRVTMTADRSTSTAYMELSSLRSEDTAVYYCAREVPETAAFEYWGQGTLVTVSS VL: QSVLTQPPSVSGAPGQRVTISCTSSSSDIGAGQGVHWYQQLPGTAPKLLIEGYYNRPSGVPDRFSGSKSGTSASLTITGLLPEDEGDYYCQSFDGTLSALFGGGTKLTVLG					131	125		
320-599 (antibody, human IgG1, name in Kabat numbering, V domains shown, full-length human IgG1, lambda) VH: QVQLVQSGAEVKKPGASVKVSCKASGYTFTSYDINWVRQAPGQGLEWMGWLNPNSGNTGYAQKFQGRVTMTADRSTSTAYMELSSLRSEDTAVYYCAREVPETAAFEYWGQGTLVTVSS VL: QSVLTQPPSVSGAPGQRVTISCTSSSSDIGAGSGVHWYQQLPGTAPKLLIEGYYNRPSGVPDRFSGSKSGTSASLTITGLLPEDEGDYYCQSFDGTLSALFGGGTKLTVLG					113	103		
320-194 (antibody, human IgG1, name in Kabat numbering, V domains shown, human IgG1, lambda) VH: QVQLVQSGAEVKKPGASVKVSCKASGYTFTSYDINWVRQAPGQGLEWMGWLNPNSGNTGYAQKFQGRVTMTADRSTSTAYMELSSLRSEDTAVYYCAREVPETAAFEYWGQGTLVTVSS VL: QSVLTQPPSVSGAPGQRVTISCQSSSSDIGAGLGVHWYQQLPGTAPKLLIEGYYNRPSGVPDRFSGSKSGTSASLTITGLLPEDEGDYYCQSYDGTLSALFGGGTKLTVLG	247	226	76	64				

More lines, now with the values ahead:

TL1A Binding Level (Early) [1] [RU]	TL1A Binding Level (Late) [2] [RU]	TL1A Binding Level (Early) [3] [RU]	TL1A Binding Level (Late) [4] [RU]	TL1A Binding Level (Early) [5] [RU]	TL1A Binding Level (Late) [6] [RU]	Antibody IC50, TL1A induced caspase potency assay in TF-1 cells [7] [ng/mL]	Fold improvement over 320-179, TL1A induced caspase potency assay in TF-1 cells [7] [fold]	Binder
				125	120			320-605 (antibody, human IgG1, name in Kabat numbering, V domains shown, full-length human IgG1, lambda) VH: QVQLVQSGAEVKKPGASVKVSCKASGYTFTSYDINWVRQAPGQGLEWMGWLNPNSGYTGYAQKFQGRVTMTADRSTSTAYMELSSLRSEDTAVYYCAREVPETAAFEYWGQGTLVTVSS VL: QSVLTQPPSVSGAPGQRVTISCTSSSSDIGAALGVHWYQQLPGTAPKLLIEGYYNRPSGVPDRFSGSKSGTSASLTITGLLPEDEGDYYCQSFDGTLSALFGGGTKLTVLG
				113	108			320-615 (antibody, human IgG1, name in Kabat numbering, V domains shown, full-length human IgG1, lambda) VH: QVQLVQSGAEVKKPGASVKVSCKASGYTFTSYDINWVRQAPGQGLEWMGWLNPNSGYTGYAQKFQGRVTMTADRSTSTAYMELSSLRSEDTAVYYCAREVPETAAFEYWGQGTLVTVSS VL: QSVLTQPPSVSGAPGQRVTISCTSSSSDIGAGLGVHWYQQLPGTAPKLLIEGYYNRPSGVPDRFSGSKSGTSASLTITGLLPEDEGDYYCQSYDYTLSALFGGGTKLTVLG
				122	111			320-614 (antibody, human IgG1, name in Kabat numbering, V domains shown, full-length human IgG1, lambda) VH: QVQLVQSGAEVKKPGASVKVSCKASGYTFTSYDINWVRQAPGQGLEWMGWLNPNSGYTGYAQKFQGRVTMTADRSTSTAYMELSSLRSEDTAVYYCAREVPETAAFEYWGQGTLVTVSS VL: QSVLTQPPSVSGAPGQRVTISCTSSSSDIGAGLGVHWYQQLPGTAPKLLIEGYYNRPSGVPDRFSGSKSGTSASLTITGLLPEDEGDYYCQSYDKTLSALFGGGTKLTVLG
				135	131	10	4	320-613 (antibody, human IgG1, name in Kabat numbering, V domains shown, full-length human IgG1, lambda) VH: QVQLVQSGAEVKKPGASVKVSCKASGYTFTSYDINWVRQAPGQGLEWMGWLNPNSGYTGYAQKFQGRVTMTADRSTSTAYMELSSLRSEDTAVYYCAREVPETAAFEYWGQGTLVTVSS VL: QSVLTQPPSVSGAPGQRVTISCTSSSSDIGAGLGVHWYQQLPGTAPKLLIEGYYNRPSGVPDRFSGSKSGTSASLTITGLLPEDEGDYYCQSWDYTLSALFGGGTKLTVLG
				125	127	5	8	320-611 (antibody, human IgG1, name in Kabat numbering, V domains shown, full-length human IgG1, lambda) VH: QVQLVQSGAEVKKPGASVKVSCKASGYTFTSYDINWVRQAPGQGLEWMGWLNPNSGYTGYAQKFQGRVTMTADRSTSTAYMELSSLRSEDTAVYYCAREVPETAAFEYWGQGTLVTVSS VL: QSVLTQPPSVSGAPGQRVTISCTSSSSDIGAGLGVHWYQQLPGTAPKLLIEGYYNRPSGVPDRFSGSKSGTSASLTITGLLPEDEGDYYCQSWDKTLSALFGGGTKLTVLG
				126	120			320-612 (antibody, human IgG1, name in Kabat numbering, V domains shown, full-length human IgG1, lambda) VH: QVQLVQSGAEVKKPGASVKVSCKASGYTFTSYDINWVRQAPGQGLEWMGWLNPNSGNTGYAQKFQGRVTMTADRSTSTAYMELSSLRSEDTAVYYCAREVPETAAFEYWGQGTLVTVSS VL: QSVLTQPPSVSGAPGQRVTISCTSSSSDIGAGLGVHWYQQLPGTAPKLLIEGYYNRPSGVPDRFSGSKSGTSASLTITGLLPEDEGDYYCQSWDYTLSALFGGGTKLTVLG
				120	112			320-616 (antibody, human IgG1, name in Kabat numbering, V domains shown, full-length human IgG1, lambda) VH: QVQLVQSGAEVKKPGASVKVSCKASGYTFTSYDINWVRQAPGQGLEWMGWLNPNSGYTGYAQKFQGRVTMTADRSTSTAYMELSSLRSEDTAVYYCAREVPETAAFEYWGQGTLVTVSS VL: QSVLTQPPSVSGAPGQRVTISCTSSSSDIGAGLGVHWYQQLPGTAPKLLIEGYYNRPSGVPDRFSGSKSGTSASLTITGLLPEDEGDYYCQSYDATLSALFGGGTKLTVLG
